Laboratory results as given in IntAct's records for PubMed 20581824.

Assays:
[1] = target: nr1d1_human NR1D1 (UniProt P20393)
[2] = target: nr1d1_human NR1D1 (UniProt P20393); remark: listed apart in the source

Chain of nr1d1_human NR1D1 (P20393 whole entry): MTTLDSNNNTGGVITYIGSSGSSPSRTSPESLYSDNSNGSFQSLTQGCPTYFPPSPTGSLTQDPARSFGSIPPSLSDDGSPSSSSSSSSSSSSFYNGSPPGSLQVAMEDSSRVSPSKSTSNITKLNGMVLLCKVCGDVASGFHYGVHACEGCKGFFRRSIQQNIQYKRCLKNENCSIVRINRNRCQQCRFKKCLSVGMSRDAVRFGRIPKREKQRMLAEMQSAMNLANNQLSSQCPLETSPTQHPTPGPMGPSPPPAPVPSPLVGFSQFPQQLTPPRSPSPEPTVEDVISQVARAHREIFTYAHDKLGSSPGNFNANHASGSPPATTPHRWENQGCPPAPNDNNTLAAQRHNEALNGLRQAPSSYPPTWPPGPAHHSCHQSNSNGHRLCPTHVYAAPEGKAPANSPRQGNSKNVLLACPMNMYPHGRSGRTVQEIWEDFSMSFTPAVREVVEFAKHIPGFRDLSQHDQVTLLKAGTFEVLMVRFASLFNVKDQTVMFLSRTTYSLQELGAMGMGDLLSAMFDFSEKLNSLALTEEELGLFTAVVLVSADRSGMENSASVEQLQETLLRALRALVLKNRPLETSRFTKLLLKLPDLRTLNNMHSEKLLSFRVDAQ

Substance | effect of a mutation on the interaction [1] | effect of a mutation on the interaction [2]
Nuclear receptor corepressor 1 (Homo sapiens), O75376 I2058A;I2059A | disrupting interaction | –
Nuclear receptor corepressor 1 (Homo sapiens), O75376 I2055A | disrupting interaction | –
Nuclear receptor corepressor 1 (Homo sapiens), O75376 I2058A | disrupting interaction | –
Nuclear receptor corepressor 1 (Homo sapiens), O75376 I2059A | disrupting interaction | –
Nuclear receptor corepressor 1 (Homo sapiens), O75376 L2048A | – | decreasing interaction
Nuclear receptor corepressor 1 (Homo sapiens), O75376 H2054A | – | disrupting interaction
Nuclear receptor corepressor 1 (Homo sapiens), O75376 H2046A | – | decreasing interaction
Nuclear receptor corepressor 1 (Homo sapiens), O75376 L2051A | – | decreasing interaction
